# B1: AGG-element oligo (dsDNA)
# DNA 1: TTTGGGAGGCCGAGGTGGG
# DNA 2: CCCACCTCGGCCTCCCAAA
# B2: AGG oligo, unlabeled (dsDNA)
# DNA 1: TTTGGGAGGCCGAGGTGGG
# DNA 2: CCCACCTCGGCCTCCCAAA
# Experiments:
# [1] = biological target: Myc-STAT3 1-355 (purified) (UniProt P40763 1-355); experiment: pull-down; IL-6; Pull-down: 20 mM Hepes pH 7.9, 100 mM KCl, 5 mM MgCl2, 0.1 mM EDTA, 4 mM DTT, 12% glycerol, 60 min room temperature (Fig 6D: 30 min on ice); EMSA: LightShift chemiluminescent kit, buffer not stated; conditions: protein: recombinant; tags: Myc; label: 5'-biotin
# [2] = biological target: Myc-STAT3 C-terminal region (purified) (UniProt P40763 465-770); experiment: as above; conditions: protein: recombinant; tags: Myc; label: 5'-biotin
# [3] = biological target: Myc-STAT3 R382Q (purified) (UniProt P40763 1-770, R382Q); experiment: pull-down; IL-6; enhanced vs WT; Pull-down: 20 mM Hepes pH 7.9, 100 mM KCl, 5 mM MgCl2, 0.1 mM EDTA, 4 mM DTT, 12% glycerol, 60 min room temperature (Fig 6D: 30 min on ice); EMSA: LightShift chemiluminescent kit, buffer not stated; conditions: protein: recombinant; tags: Myc; chain copies: 2; label: 5'-biotin
# [4] = biological target: Myc-STAT3 V461/462/463A (purified) (UniProt P40763 1-770, V461A;V462A;V463A); experiment: as above; conditions: protein: recombinant; tags: Myc; chain copies: 2; label: 5'-biotin
# [5] = biological target: T1, Myc-STAT3 wild type (purified) (UniProt P40763 1-770); experiment: EMSA; 2 ug protein, 1 nM probe; less efficient than SIE; Pull-down: 20 mM Hepes pH 7.9, 100 mM KCl, 5 mM MgCl2, 0.1 mM EDTA, 4 mM DTT, 12% glycerol, 60 min room temperature (Fig 6D: 30 min on ice); EMSA: LightShift chemiluminescent kit, buffer not stated; conditions: protein: recombinant; tags: Myc; chain copies: 2; label: 5'-biotin
# [6] = biological target: T1, Myc-STAT3 wild type (purified); experiment: competition; 200-fold unlabeled competitor; Pull-down: 20 mM Hepes pH 7.9, 100 mM KCl, 5 mM MgCl2, 0.1 mM EDTA, 4 mM DTT, 12% glycerol, 60 min room temperature (Fig 6D: 30 min on ice); EMSA: LightShift chemiluminescent kit, buffer not stated; conditions: protein: recombinant; tags: Myc; chain copies: 2
# T1 sequence (P40763 whole entry): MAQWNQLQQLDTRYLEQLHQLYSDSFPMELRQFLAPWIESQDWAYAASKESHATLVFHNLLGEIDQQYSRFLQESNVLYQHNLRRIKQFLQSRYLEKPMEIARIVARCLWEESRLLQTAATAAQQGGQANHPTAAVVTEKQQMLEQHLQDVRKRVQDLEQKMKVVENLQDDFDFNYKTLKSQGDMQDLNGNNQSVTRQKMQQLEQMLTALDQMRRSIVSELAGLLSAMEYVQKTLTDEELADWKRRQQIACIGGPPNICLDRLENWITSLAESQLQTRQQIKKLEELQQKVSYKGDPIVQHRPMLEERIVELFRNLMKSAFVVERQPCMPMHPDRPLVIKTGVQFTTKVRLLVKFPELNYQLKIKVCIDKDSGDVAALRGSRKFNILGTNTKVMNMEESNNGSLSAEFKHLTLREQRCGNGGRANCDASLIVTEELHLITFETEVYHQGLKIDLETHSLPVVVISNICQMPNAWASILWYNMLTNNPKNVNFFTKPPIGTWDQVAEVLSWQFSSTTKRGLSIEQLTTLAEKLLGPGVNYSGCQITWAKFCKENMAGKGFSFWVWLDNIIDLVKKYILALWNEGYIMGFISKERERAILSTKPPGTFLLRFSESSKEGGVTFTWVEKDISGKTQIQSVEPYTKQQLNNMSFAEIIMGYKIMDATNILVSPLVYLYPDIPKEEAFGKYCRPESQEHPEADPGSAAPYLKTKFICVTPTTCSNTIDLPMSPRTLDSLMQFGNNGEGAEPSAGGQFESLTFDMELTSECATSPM
# Myc-STAT3 1-355 (purified), sequence (P40763 1-355): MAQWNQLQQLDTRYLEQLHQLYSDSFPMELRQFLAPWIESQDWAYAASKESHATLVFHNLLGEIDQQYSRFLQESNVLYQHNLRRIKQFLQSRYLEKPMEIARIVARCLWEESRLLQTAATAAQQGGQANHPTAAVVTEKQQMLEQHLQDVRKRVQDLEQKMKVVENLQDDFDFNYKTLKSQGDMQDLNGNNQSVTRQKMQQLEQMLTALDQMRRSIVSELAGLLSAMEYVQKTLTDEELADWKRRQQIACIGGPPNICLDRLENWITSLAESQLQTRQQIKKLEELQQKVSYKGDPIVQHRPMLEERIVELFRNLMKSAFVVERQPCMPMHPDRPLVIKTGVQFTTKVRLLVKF
# Myc-STAT3 V461/462/463A (purified), sequence (P40763 whole entry V461A/V462A/V463A): as the sequence (P40763 whole entry) above, with V461A, V462A, V463A counted along it
# Myc-STAT3 R382Q (purified), sequence (P40763 whole entry R382Q): as the sequence (P40763 whole entry) above, with R382Q counted along it
# Myc-STAT3 C-terminal region (purified), sequence (P40763 465-770): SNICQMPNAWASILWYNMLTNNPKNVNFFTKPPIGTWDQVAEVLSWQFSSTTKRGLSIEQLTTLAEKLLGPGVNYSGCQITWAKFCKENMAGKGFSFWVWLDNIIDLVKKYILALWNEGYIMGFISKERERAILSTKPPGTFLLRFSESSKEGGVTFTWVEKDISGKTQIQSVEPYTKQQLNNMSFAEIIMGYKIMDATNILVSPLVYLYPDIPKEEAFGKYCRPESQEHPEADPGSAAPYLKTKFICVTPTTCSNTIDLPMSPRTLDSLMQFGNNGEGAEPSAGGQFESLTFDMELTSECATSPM
Binder,binding result [1],binding result [2],binding result [3],binding result [4],binding result [5],binding result [6]
B1,binds,no binding,binds,binds,binds,
B2,,,,,,binds
